From patent US20130109846A1 (published 2013)

Target: human CD28 (human, UniProt P10747 19-220)
Test: cell-based or functional assay

Binder	MLR assay (EC50)	Luciferase assay (EC50)
1h-99 (other) VH: EVQLLESGGGLVQPGGSLRLSCAASGFTFDSANMTWVRQAPGKGLEWVSWIDDTGTQTYYADSVKGRFTISRDNSKNTLYLQMNSLRAEDTAVYYCAKSPFGPLYGFDYWGQGTLVTVSS	2200 nM	–
1h-18-1 (other) VL: DIQMTQSPSSLSASVGDRVTITCRASQYIGTSLNWYQQKPGKAPKLLTYQASFLQSGVPSRFSGSGSGTDFTLTISSLQPEDFATYYCQQLALRPMTFGQGTKVEIKR	–	5400 nM
1h-18-3 (other) VL: DIQMTQSPSSLSASVGDRVTITCRASQYIGTSLNWYQQKPGKAPKLLTYRASLLQSGVPSRFSGSGSGTDFTLTISSLQPEDFATYYCQQLALRPMTFGQGTKVEIKR	–	1000 nM
1h-18-5 (other) VL: DIQMTQSPSSLSASVGDRVTITCRASQYIGTSLNWYQQKPGKAPKLLTYQASLLQSGVPSRFSGSGSGTDFTLTISSLQPEDFATYYCQQLAMRPMTFGQGTKVEIKW	–	> 7000 nM
1h-37 (other) VH: EVQLLESGGGLVQPGGSLRLSCAASGFTFGTYKMVWVRQAPGKGLEWVSSIGPGGLDTYYADSVKGRFTISRDNSKNTLYLQMNSLRAEDTAVYYCAKSWMTLPITGFDYRGQGTLVTVSS	1900 nM	–
1h-29 (other) VH: EVQLLESGGGLVQPGGSLRLSCAASGFTFEDYDMNWVRQAPGKGLEWVSHIDRGGTLTYYADSVKGRFTISRDNSKNTLYLQMNSLRAEDTAVYYCAKSTLMGFDYWGQGTLVTVSS	–	> 7000 nM
1h-239-833 (other) VL: DIQMTQSPSSLSASVGDRVTITCRASQSIYPFLEWYQQKPGKAPKLLIYFTSRLRAGVPSRFSGSGSGTDFTLTISSLQPEDFATYYCLQNVTNPATFSQGTKVEIKR	7 nM	8 nM
1h-239-838 (other) VL: DIQMTQSPSSLSASVGDRVTITCQASQSIYPFLEWYQQKPGKAPKLLIYFTSRLARGVPSRFSGSGSGTDFTLTISSLQPEDFATYYCLQNVTNPATFSQGTRVEIKR	3 nM	4 nM
1h-239-837 (other) VL: DIQMTQSPSSLSASVGDRVTITCRASQSIYPFLEWYQQKPGKAPKLLIYFTSRLASGVPSRFSGSGSGTDFTLTISSLQPEDFATYYCLQNVTNPATFSQGTKVEIKR	14 nM	9 nM
1h-239-856 (other) VL: DIQMTQSPSSLSASVGDRVTITCRASQSIYPFLEWYQQKPGKAPKLLIYFTSRLRHGVPSRFSGSGSGTDFTLTISSLQPEDFATYYCLQNVTNPATFSQGTKVEIKR	1 nM	3 nM
1h-239-859 (other) VL: DIQMTQSPSSLSASVGDRVTITCRASQSIYPFLEWYQQKPGKAPKLLIYFSSMLASGVPSRFSGSGSGTDFTLTISSLQPEDFATYYCLQNVTNPATFSQGTKVEIKR	4 nM	5 nM
1h-239-9 (other) VL: DIQMTQSPSSLSASVGDRVTITCRASQSIYPFLEWYQQKPGKAPKLLIYFTSRLQSGVPSRFSGSGSGTDFTLTISSLQPEDFATYYCLQNVTNPATFGQGTKVEIKR	–	27 nM
1h-239-851 (other) VL: DIQMTQSPSSLSASVGDRVTITCRASRNIYPFLEWYQQKPGKAPKLLIYFTSRLQSGVPSRFSGSGSGTDFTLTISSLQPEDFATYYCLQNVTNPATFSQGTKVEIKR	4 nM	5 nM
1h-239-871 (other) VL: DIQMTQSPSSLSASVGDRVTITCRASQSIYPFLEWYQQKPGKAPKLLIYFTSRLQSGVPSRFSGSGSGTDFTLTISSLQPEDFATYYCLQNVANPATFSQGTKVEIKR	3 nM	–
1h-239-849 (other) VL: DIQMTQSPSSLSASVGDRVTITCRASQSIYPFLEWYQQKPGKAPKLLIYFTSKLTRGVPSRFSGSGSGADFTLTISNLQPEDFATYYCLQNVTNPATFSQGTKVEIKR	10 nM	13 nM
1h-239-869 (other) VL: DIQMTQSPSSLSASVGDRVTITCRASQSIYPFLEWYQQKPGKAPKLLIYFTSRLQSGVPSRFSGSGSGTDFTLTISSLQPEDFATYYCLQNVQMPATFSQGTKVEIKR	2 nM	–
1h-239-847 (other) VL: DIQMTQSPSSLSASVGDRVTITCRASQSIYPFLEWYQQKPGKAPKLLIYFTSRLAYGVPSRFSGSGSGTDFTLTISSLQPEDFATYYCLQNVTNPATFSQGTKVEIRR	5 nM	8 nM
1h-239-857 (other) VL: DIQMTQSPSSLSASVGDRVTITCRASQSIYPFLEWYQQKPGKAPKLLIYFTSRLAAGVPSRFSGSGSGTDFTLTISSLQPEDFATYYCLQNVTNPAAFSQGTKVEIKR	1 nM	3 nM
1h-239-840 (other) VL: DIQMTQSPSSLSASVGDRVTITCRASQSIYPFLEWYQQKPGKAPKLLIYFASRLASGVPSRFSGSGSGTDFTLTISSLQPEDFATYYCLQNVTNPATFSQGTKVEIKR	10 nM	9 nM
1h-239-870 (other) VL: DIQMTQSPSSLSASVGDRVTITCRASQSIYPFLEWYQQKPGKAPKLLIYFTSRLQSGVPSRFSGSGSGTDFTLTISSLQPEDFATYYCLQNVMMPATFSQGTKVEIKR	3 nM	–
1h-30 (other) VH: EVQLLESGGGLVQPGGSLRLSCAASGFTFAHYHMGWVRQAPGKGLEWVSWIPADGLRTYYADSVKGRFTISRDNSKNTLYLQMNSLRAEDTAVYYCAKYEGAFDYWGQGTLVTVSS	–	1200 nM
1h-93 (other) VH: EVQLLESGGGLVQPGGSLRLSCAASGFTFPLYEMAWVRQAPGKGLEWVSSIMSNGIRTYYADSVKGRFTISRDNSKNTLYLQMNSLRAEDTAVYYCAKRKSSSSRTVFDYWGQGTLVTVSS	3200 nM	2800 nM
1h-93-2 (other) VH: EVQLLESGGGLVQPGGSLRLSCAASGFTFPLYEMAWVRQAPGKGLEWVSSIMSNGIRTYYADSVKGRFTISRDNSKNTLYLQMNSLRAEDTAVYYCAKRESSSSRTVFDYWGQGTLVTVSS	830 nM	383 nM
1h-93-1 (other) VH: EVQLLESGGGLVQPGGSLRLSCAASGFTFPLYEMAWVRQAPGKGLEWVSSIMSNGTRTYYADSVKGRFTISRDNSKNTLYLQMNSLRAEDTAVYYCAKRESSSSRTVFDYWGQGTLVTVSS	545 nM	493 nM
